Like-named read-outs stand apart in the source and are kept apart here. Values belong to the binder of their own block, whether it stands above or below them.
Assays:
[1] = target: T1, O7-bS; experiment: two-hybrid library CCNG1;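 further: natural log of median RNA to DNA barcode read ratio; higher means stronger binding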
T1 chain: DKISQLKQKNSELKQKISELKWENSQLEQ

[2] = target: T2, O8-bS; experiment: two-hybrid library CCNG1;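 further: natural log of median RNA to DNA barcode read ratio; higher means stronger binding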
T2 chain: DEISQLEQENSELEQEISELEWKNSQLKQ

[3] = target: T3, O6-bS; experiment: two-hybrid library CCNG1;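 further: natural log of median RNA to DNA barcode read ratio; higher means stronger binding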
T3 chain: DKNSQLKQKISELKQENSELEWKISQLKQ

[4] = target: T4, O9-bS; experiment: two-hybrid library CCNG1;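 further: natural log of median RNA to DNA barcode read ratio; higher means stronger binding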
T4 chain: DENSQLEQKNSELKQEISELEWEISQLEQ

[5] = target: T5, APC8401-AA; experiment: two-hybrid library CCmax; conditions: mean of both orientations
T5 chain: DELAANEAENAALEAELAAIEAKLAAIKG

[6] = target: T6, APC9806-AA; experiment: two-hybrid library CCmax; conditions: mean of both orientations
T6 chain: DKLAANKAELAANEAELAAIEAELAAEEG

[7] = target: T7, APC6088-AA; experiment: two-hybrid library CCmax; conditions: mean of both orientations
T7 chain: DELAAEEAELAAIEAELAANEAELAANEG

[8] = target: T8, APC4100-AA; experiment: two-hybrid library CCmax; conditions: mean of both orientations
T8 chain: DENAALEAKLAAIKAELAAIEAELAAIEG

[9] = target: T9, APC3354-AA; experiment: two-hybrid library CCmax; conditions: mean of both orientations
T9 chain: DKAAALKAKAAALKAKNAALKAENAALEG

[10] = target: T10, APC4336-AA; experiment: two-hybrid library CCmax; conditions: mean of both orientations
T10 chain: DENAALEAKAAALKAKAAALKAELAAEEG

[11] = target: T11, APC3265-AA; experiment: two-hybrid library CCmax
T11 chain: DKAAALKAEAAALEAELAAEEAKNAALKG

[12] = target: T12, APC9141-AA; experiment: two-hybrid library CCmax; conditions: mean of both orientations
T12 chain: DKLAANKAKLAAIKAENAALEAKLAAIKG

[13] = target: T13, APC9291-AA; experiment: two-hybrid library CCmax; conditions: mean of both orientations
T13 chain: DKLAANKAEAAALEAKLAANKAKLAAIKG

[14] = target: T14, APC5009-AA; experiment: two-hybrid library CCmax; conditions: mean of both orientations
T14 chain: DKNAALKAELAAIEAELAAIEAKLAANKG

[15] = target: T15, APC5531-AA; experiment: two-hybrid library CCmax; conditions: mean of both orientations
T15 chain: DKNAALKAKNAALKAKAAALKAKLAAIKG

[16] = target: T16, APC542-AA; experiment: two-hybrid library CCmax; conditions: mean of both orientations
T16 chain: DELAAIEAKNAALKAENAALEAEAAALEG

[17] = target: T17, APC8516-AA; experiment: two-hybrid library CCmax; conditions: mean of both orientations
T17 chain: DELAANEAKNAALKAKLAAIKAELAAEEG

[18] = target: T18, APC9182-AA; experiment: two-hybrid library CCmax; conditions: mean of both orientations
T18 chain: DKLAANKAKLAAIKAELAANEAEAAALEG

[19] = target: T19, APC7524-AA; experiment: two-hybrid library CCmax; conditions: mean of both orientations
T19 chain: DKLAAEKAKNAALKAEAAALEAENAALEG

[20] = target: T20, APC3323-AA; experiment: two-hybrid library CCmax; conditions: mean of both orientations
T20 chain: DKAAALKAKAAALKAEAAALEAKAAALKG

[21] = target: T21, APC3881-AA; experiment: two-hybrid library CCmax; conditions: mean of both orientations
T21 chain: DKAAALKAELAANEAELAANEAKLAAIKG

[22] = target: T22, O7; experiment: two-hybrid library CCNG1
T22 chain: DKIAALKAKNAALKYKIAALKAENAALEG

[23] = target: T23, O8; experiment: two-hybrid library CCNG1
T23 chain: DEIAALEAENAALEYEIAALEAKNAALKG

[24] = target: T24, O9; experiment: two-hybrid library CCNG1
T24 chain: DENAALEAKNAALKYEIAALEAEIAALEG

[25] = target: T25, 4H963-AA; experiment: two-hybrid library CCmax; conditions: mean of both orientations
T25 chain: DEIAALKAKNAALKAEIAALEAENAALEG

[26] = target: T26, 4H56-AA; experiment: two-hybrid library CCmax; conditions: mean of both orientations
T26 chain: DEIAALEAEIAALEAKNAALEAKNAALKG

[27] = target: T27, 4H347-AA; experiment: two-hybrid library CCmax
T27 chain: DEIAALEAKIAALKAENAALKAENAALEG

[28] = target: T28, 4H_APH; experiment: two-hybrid library CCmax; conditions: mean of both orientations
T28 chain: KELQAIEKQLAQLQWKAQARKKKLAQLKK

[29] = target: T29, 4H_BCR; experiment: two-hybrid library CCmax; conditions: mean of both orientations
T29 chain: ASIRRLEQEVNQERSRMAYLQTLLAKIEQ

[30] = target: GCN2_T; experiment: two-hybrid library CCmax; conditions: mean of both orientations
[31] = target: T30, 4H688-AA; experiment: two-hybrid library CCmax; conditions: mean of both orientations
T30 chain: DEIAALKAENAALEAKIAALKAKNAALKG

[32] = target: 4H_GCN4; experiment: two-hybrid library CCmax
Chain of 4H_GCN4 (chain, as listed by the source): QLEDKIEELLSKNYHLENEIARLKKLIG

[33] = target: T31, 4H376-AA; experiment: two-hybrid library CCmax; conditions: mean of both orientations
T31 chain: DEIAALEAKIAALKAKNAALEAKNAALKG

[34] = target: T32, 4H406-AA; experiment: two-hybrid library CCmax; conditions: mean of both orientations
T32 chain: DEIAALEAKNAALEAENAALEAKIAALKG

[35] = target: T33, 4H452-AA; experiment: two-hybrid library CCmax; conditions: mean of both orientations
T33 chain: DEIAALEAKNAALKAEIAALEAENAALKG

[36] = target: T34, 4H3493-AA; experiment: two-hybrid library CCmax
T34 chain: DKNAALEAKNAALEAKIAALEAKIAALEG

[37] = target: T35, 4H485-AA; experiment: two-hybrid library CCmax; conditions: mean of both orientations
T35 chain: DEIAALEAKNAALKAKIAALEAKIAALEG

[38] = target: T36, 4H3590-AA; experiment: two-hybrid library CCmax; conditions: mean of both orientations
T36 chain: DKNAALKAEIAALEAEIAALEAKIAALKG

[39] = target: T37, 4H797-AA; experiment: two-hybrid library CCmax; conditions: mean of both orientations
T37 chain: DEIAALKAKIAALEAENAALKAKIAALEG

[40] = target: T38, 4H3865-AA; experiment: two-hybrid library CCmax; conditions: mean of both orientations
T38 chain: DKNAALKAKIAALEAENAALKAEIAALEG

[41] = target: T39, 4H3395-AA; experiment: two-hybrid library CCmax; conditions: mean of both orientations
T39 chain: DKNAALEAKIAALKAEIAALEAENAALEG

[42] = target: T40, 4H909-AA; experiment: two-hybrid library CCmax; conditions: mean of both orientations
T40 chain: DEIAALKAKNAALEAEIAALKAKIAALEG

[43] = target: T41, 4H536-AA; experiment: two-hybrid library CCmax; conditions: mean of both orientations
T41 chain: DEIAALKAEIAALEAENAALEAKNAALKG

[44] = target: T42, 4H745-AA; experiment: two-hybrid library CCmax; conditions: mean of both orientations
T42 chain: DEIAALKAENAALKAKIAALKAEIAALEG

[45] = target: T43, 4H3410-AA; experiment: two-hybrid library CCmax; conditions: mean of both orientations
T43 chain: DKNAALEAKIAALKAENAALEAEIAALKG

[46] = target: T44, 4H710-AA; experiment: two-hybrid library CCmax; conditions: mean of both orientations
T44 chain: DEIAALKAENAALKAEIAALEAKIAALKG

[47] = target: T45, 4H3697-AA; experiment: two-hybrid library CCmax; conditions: mean of both orientations
T45 chain: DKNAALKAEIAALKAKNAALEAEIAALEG

[48] = target: T46, 4H570-AA; experiment: two-hybrid library CCmax; conditions: mean of both orientations
T46 chain: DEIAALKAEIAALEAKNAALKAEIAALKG

[49] = target: T47, 4H850-AA; experiment: two-hybrid library CCmax; conditions: mean of both orientations
T47 chain: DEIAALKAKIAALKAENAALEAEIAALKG

[50] = target: T48, 4H458-AA; experiment: two-hybrid library CCmax; conditions: mean of both orientations
T48 chain: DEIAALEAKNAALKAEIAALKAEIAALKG

[51] = target: T49, 4H629-AA; experiment: two-hybrid library CCmax; conditions: mean of both orientations
T49 chain: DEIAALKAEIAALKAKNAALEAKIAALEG

[52] = target: T50, 4H3753-AA; experiment: two-hybrid library CCmax; conditions: mean of both orientations
T50 chain: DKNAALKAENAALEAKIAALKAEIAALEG

[53] = target: T51, 4H930-AA; experiment: two-hybrid library CCmax; conditions: mean of both orientations
T51 chain: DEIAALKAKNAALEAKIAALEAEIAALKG

[54] = target: T52, 4H94-AA; experiment: two-hybrid library CCmax; conditions: mean of both orientations
T52 chain: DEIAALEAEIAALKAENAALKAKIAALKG

[55] = target: T53, 4H891-AA; experiment: two-hybrid library CCmax; conditions: mean of both orientations
T53 chain: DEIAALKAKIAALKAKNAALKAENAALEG

[56] = target: T54, 4H3381-AA; experiment: two-hybrid library CCmax
T54 chain: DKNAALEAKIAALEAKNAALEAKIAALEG

interaction score [5]: -1.36 | interaction score [6]: -1.38 | interaction score [7]: -1.89 | interaction score [8]: -1.05 | interaction score [9]: -1.86 | interaction score [10]: -1.54 | interaction score [11]: -1.08 | interaction score [12]: -1.63 | interaction score [13]: -1.49 | interaction score [14]: -1.45 | interaction score [15]: -1.82 | interaction score [16]: -1.56 | interaction score [17]: -1.33 | interaction score [18]: -1.78 | interaction score [19]: -1.43 | interaction score [20]: -1.79 | interaction score [21]: -1.45
Binder: DKAAALKAEAAALEAELAAEEAKNAALKG [APC3265-AA]

interaction score [22]: -2.89 | interaction score [23]: 1.54 | interaction score [24]: -2.46
Binder: DKIAALKAKNAALKYKIAALKAENAALEG [O7]

Second part, the binder before the results:

Binder: DKNSQLKQKISELKQENSELEWKISQLKQ [O6-bS]
interaction score [1]: -0.489 | interaction score [2]: -1.78 | interaction score [3]: -1.84 | interaction score [4]: -0.588

Binder: DEIAALEAKIAALKAENAALKAENAALEG [4H347-AA]
interaction score [25]: -1.41 | interaction score [26]: -0.0342 | interaction score [27]: -0.315 | interaction score [28]: -1.79 | interaction score [29]: -1.88 | interaction score [30]: -2.14 | interaction score [31]: -0.941 | interaction score [32]: -2.04 | interaction score [33]: -1.06 | interaction score [34]: -1.21 | interaction score [35]: -0.224 | interaction score ([36]; mean of both orientations): -2.08

Binder: DKNAALEAKNAALEAKIAALEAKIAALEG [4H3493-AA]
interaction score [25]: -1.58 | interaction score [31]: -1.63 | interaction score [33]: -1.47 | interaction score [34]: -1.82 | interaction score [36]: 0.972

Binder: DKNAALEAKIAALEAKNAALEAKIAALEG [4H3381-AA]
interaction score [37]: -0.941 | interaction score [38]: -1.02 | interaction score [39]: -1.57 | interaction score [40]: -1.52 | interaction score [41]: -1.66 | interaction score [42]: -1.66 | interaction score [43]: -1.65 | interaction score [44]: -1.6 | interaction score [45]: -1.09 | interaction score [46]: -1.49 | interaction score [47]: -1.45 | interaction score [48]: -1.34 | interaction score [25]: -2.17 | interaction score [49]: -1.85 | interaction score [50]: -1.53 | interaction score [51]: -1.4 | interaction score [52]: -1.71 | interaction score ([27]; mean of both orientations): -1.55 | interaction score [53]: -1.38 | interaction score [54]: -1.76 | interaction score [31]: -1.36 | interaction score [55]: -1.56 | interaction score [56]: 0.71 | interaction score [33]: -1.55 | interaction score [34]: -1.15 | interaction score ([36]; mean of both orientations): -1.77

— PMC10397247
